Test results from PMC8599648 (Molecular microbiology, 2021).

Molecular target: the molecule itself
Assay: SEC

Protein	stoichiometry N
FNR D154A (natural protein, E. coli (strain MG1655), UniProt P0A9E5 1-250, looked up) MIPEKRIIRRIQSGGCAIHCQDCSISQLCIPFTLNEHELDQLDNIIERKKPIQKGQTLFKAGDELKSLYAIRSGTIKSYTITEQGDEQITGFHLAGDLVGFDAIGSGHHPSFAQALETSMVCEIPFETLDDLSGKMPNLRQQMMRLMSGEIKGAQDMILLLSKKNAEERLAAFIYNLSRRFAQRGFSPREFRLTMTRGDIGNYLGLTVETISRLLGRFQKSGMLAVKGKYITIENNDALAQLAGHTRNVA	2

Molecular target: the molecule itself
Assay: cross-linking

Protein	binding result
YnfK I184Y (enzyme, E. coli (strain MG1655), UniProt P0A6E9 1-231, looked up) MLKRFFITGTDTSVGKTVVSRALLQALASQGKTVAGYKPVAKGSKETPEGLRNKDALVLQSVSTIELPYEAVNPIALSEEESSVAHSCPINYTLISNGLANLTEKVDHVVVEGTGGWRSLMNDLRPLSEWVVQEQLPVLMVVGIQEGCINHALLTAQAIANDGLPLIGWVANRINPGLAHYAEYIDVLGKKLPAPLIGELPYLPRAEQRELGQYIRLAMLRSVLAVDRVTV	binds
YnfK T114A (enzyme, E. coli (strain MG1655), UniProt P0A6E9 1-231, looked up) MLKRFFITGTDTSVGKTVVSRALLQALASQGKTVAGYKPVAKGSKETPEGLRNKDALVLQSVSTIELPYEAVNPIALSEEESSVAHSCPINYTLISNGLANLTEKVDHVVVEGAGGWRSLMNDLRPLSEWVVQEQLPVLMVVGIQEGCINHALLTAQAIANDGLPLIGWVANRINPGLAHYAEIIDVLGKKLPAPLIGELPYLPRAEQRELGQYIRLAMLRSVLAVDRVTV	binds
YnfK S13E (enzyme, E. coli (strain MG1655), UniProt P0A6E9 1-231, looked up) MLKRFFITGTDTEVGKTVVSRALLQALASQGKTVAGYKPVAKGSKETPEGLRNKDALVLQSVSTIELPYEAVNPIALSEEESSVAHSCPINYTLISNGLANLTEKVDHVVVEGTGGWRSLMNDLRPLSEWVVQEQLPVLMVVGIQEGCINHALLTAQAIANDGLPLIGWVANRINPGLAHYAEIIDVLGKKLPAPLIGELPYLPRAEQRELGQYIRLAMLRSVLAVDRVTV	binds
YnfK S13E/I184Y (enzyme, E. coli (strain MG1655), UniProt P0A6E9 1-231, looked up) MLKRFFITGTDTEVGKTVVSRALLQALASQGKTVAGYKPVAKGSKETPEGLRNKDALVLQSVSTIELPYEAVNPIALSEEESSVAHSCPINYTLISNGLANLTEKVDHVVVEGTGGWRSLMNDLRPLSEWVVQEQLPVLMVVGIQEGCINHALLTAQAIANDGLPLIGWVANRINPGLAHYAEYIDVLGKKLPAPLIGELPYLPRAEQRELGQYIRLAMLRSVLAVDRVTV	binds
YnfK T114A/I184Y (enzyme, E. coli (strain MG1655), UniProt P0A6E9 1-231, looked up) MLKRFFITGTDTSVGKTVVSRALLQALASQGKTVAGYKPVAKGSKETPEGLRNKDALVLQSVSTIELPYEAVNPIALSEEESSVAHSCPINYTLISNGLANLTEKVDHVVVEGAGGWRSLMNDLRPLSEWVVQEQLPVLMVVGIQEGCINHALLTAQAIANDGLPLIGWVANRINPGLAHYAEYIDVLGKKLPAPLIGELPYLPRAEQRELGQYIRLAMLRSVLAVDRVTV	binds
